The target in assay [1] is T1, T Cell Receptor Beta Variable 17 (Vβ17) on the surface of human T cells (human).
T1 construct: whole, on cells; Polyclonal Vβ17+ T cells of donors; also called V 17; Vb17
Nature of the assay: flow cytometry, binding to CD8+ T cells isolated from PBMCs, donor HPU 09381.

Assay [2] concerns the target T1, T Cell Receptor Beta Variable 17 (Vβ17) …. Nature of the assay: flow cytometry, binding to CD8+ T cells isolated from PBMCs (only the Vβ17 non-depleted curve rises). (A flow cytometer gives signals particle by particle.)
Assay [3] has the same target. In words: flow cytometry, CD8+ T cells from Vβ17 non-depleted PBMCs.
Assay [4] shares this target. In words: flow cytometry, binding to CD8+ T cells isolated from PBMCs, donor HPU 08694.
Assay [5] shares this target. Nature of the assay: flow cytometry, FLU MP 58-stimulated enriched CD8+ T cells, anti-human IgG4 Fc-PE.
Method: Mouse anti-human IgG4 Fc-PE secondary antibody was used to detect the bispecific antibody.
Bispecific antibody binding affinities to CD8+ T cell were determined by flow cytometry.
The target is the same in assay [6]. In words: flow cytometry, binding to CD8+ T cells isolated from PBMCs, donor D203517.
The target is the same in assay [7]. Nature of the assay: flow cytometry, MFI, pan T cells of donor NHV21-07174.
Method: (§1) Binding assay was done with isolated Pan T cells from 2 donors. Pan T cells were isolated from Whole PBMCs. 1 μL Live dead (1:1000 diluted) and Fc Block 2 μL/well was added. 100 μL of the cell suspension was seeded in 96 well V bottom plate at 100,000 cell per well and incubated for 10 minutes at 4° C. The plate was washed by adding 190 μL FACS buffer spun at 1500 rpm for 5 minutes. 100 μL diluted test antibodies was added to the plate and the plate was incubated at 37° C. 5% CO₂ for 45 minutes. Wash step was repeated. 100 μL diluted Secondary antibody (0.5 μL/well in 100 μL FACS buffer) was added and the plate was incubated at 4° C. for 45 minutes. Wash step was repeated. 100 μL cytofix was added to the pellet and the plate was incubated at 4° C. for 10 minutes. Wash step was repeated. 100 μL FACS buffer was added to the pellet and sample was analyzed by Flow cytometry. Cells were gated on FSC/SSC, followed by live cell gating.
Assay [8] has the same target. Nature of the assay: flow cytometry, % binding, pan T cells of donor NHV21-07174.
Method: as §1
Assay [9] has as its target T2, prostate-specific membrane antigen (PSMA) on C4-2B cells (human, UniProt Q04609 1-750).
T2 construct: whole, on cells
Nature of the assay: flow cytometry on C4-2B cells, APC secondary antibody.
Method: The C4-2B cells were centrifuged and re-suspended in DPBS and counted. 4 million cells were re-suspended in 8 mL of DPBS and 8 μL of Violet Fluorescent Dye was added and incubated for 15 min. in 4° C. Eight milliliters FACS buffer was added to neutralize mix and 200 μL per well was seeded. The plate was centrifuged and re-suspended in 100 μL of antibody dilutions accordingly and incubated for 30 min. in incubator. 10 μg/mL conc. of each antibodies were prepared in 200 μL stock and further diluted to 8 points by adding 60 μL to 120 μL of FACS serially buffer to get 3-fold dilution. 100 μL of FACS buffer were added to each well, centrifuged, re-suspended in 100 μL FACS buffer with 0.5 μL/well con. Secondary antibody tagged with APC & incubated for 30 min. 4° C. Next, 100 μL of FACS buffer was added to each well, centrifuged, re-suspended in 100 μL BD Cytofix & incubated for 10 min. 4° C. 100 μL of FACS buffer were added to each well, centrifuged, re-suspended in 100 μL FACS buffer, stored at 4° C. Data was acquired in Flow cytometer and the data was analyzed.

Assay [10] deals with T1, T Cell Receptor Beta Variable 17 (Vβ17) …. In words: flow cytometry, MFI, pan T cells of donor NHV21-07171.
Method: as §1
Assay [11] has the same target. In words: flow cytometry, % binding, pan T cells of donor NHV21-07171.
Method: as §1
Assay [12] concerns the target T3, CD123 on Kasumi-3 AML cells (human, UniProt P26951 19-378).
T3 construct: whole, on cells; also called interleukin-3 receptor; IL-3R
In words: flow cytometry, binding to Kasumi3 AML cells.

Positions count from the first letter of the chain named. Numbers in names are those of the source. Where “and” joins values, the source holds several entries; their conditions need not be identical. Identical values can stand only once.

T1 sequence (A0A075B6N1 22-114): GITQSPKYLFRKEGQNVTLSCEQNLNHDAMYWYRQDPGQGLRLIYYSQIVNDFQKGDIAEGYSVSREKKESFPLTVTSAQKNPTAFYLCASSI
T3 sequence (P26951 19-378): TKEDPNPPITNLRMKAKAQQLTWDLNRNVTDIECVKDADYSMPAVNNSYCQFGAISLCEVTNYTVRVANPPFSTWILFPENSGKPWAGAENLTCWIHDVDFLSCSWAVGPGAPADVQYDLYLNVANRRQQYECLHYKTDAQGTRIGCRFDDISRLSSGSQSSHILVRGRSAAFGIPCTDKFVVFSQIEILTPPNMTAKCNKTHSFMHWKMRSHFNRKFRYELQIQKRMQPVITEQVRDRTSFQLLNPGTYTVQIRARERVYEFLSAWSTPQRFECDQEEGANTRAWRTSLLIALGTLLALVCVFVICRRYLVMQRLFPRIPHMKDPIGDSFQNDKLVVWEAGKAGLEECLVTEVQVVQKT
T2 sequence (Q04609 whole entry): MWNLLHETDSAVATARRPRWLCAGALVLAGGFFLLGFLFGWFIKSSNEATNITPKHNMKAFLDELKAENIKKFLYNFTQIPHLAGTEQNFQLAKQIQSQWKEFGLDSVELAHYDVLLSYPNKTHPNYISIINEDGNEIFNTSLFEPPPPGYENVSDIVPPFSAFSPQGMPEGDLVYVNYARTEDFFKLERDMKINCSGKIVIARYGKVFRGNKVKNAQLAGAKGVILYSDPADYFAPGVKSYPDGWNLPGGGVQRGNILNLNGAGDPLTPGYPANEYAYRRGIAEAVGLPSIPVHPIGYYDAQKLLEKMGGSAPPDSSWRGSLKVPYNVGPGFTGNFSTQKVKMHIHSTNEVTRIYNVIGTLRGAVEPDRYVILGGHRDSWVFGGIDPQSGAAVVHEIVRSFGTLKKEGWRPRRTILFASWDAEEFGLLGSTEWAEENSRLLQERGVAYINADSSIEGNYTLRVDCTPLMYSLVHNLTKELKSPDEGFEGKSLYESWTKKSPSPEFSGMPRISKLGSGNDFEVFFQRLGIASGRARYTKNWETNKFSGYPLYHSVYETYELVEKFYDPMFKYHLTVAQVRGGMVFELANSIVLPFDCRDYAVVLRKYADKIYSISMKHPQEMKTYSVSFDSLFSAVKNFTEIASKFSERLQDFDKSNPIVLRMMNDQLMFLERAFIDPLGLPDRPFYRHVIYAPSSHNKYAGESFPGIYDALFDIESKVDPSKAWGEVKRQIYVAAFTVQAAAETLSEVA

B1: VB11 (anti-Vβ17/anti-CD123) bispecific antibody (bispecific antibody, human IgG4 S228P, kappa, F234A L235A)
heavy 1: QVQLQESGPGLVKPSETLSLTCTVSGYSITSGYFWNWIRQPPGKGLEWIGYISYDGSNNYNPSLKSRVTISRDTSKNQFSLKLSSVTAADTAVYYCASPSPGTGYAVDYWGQGTLVTVSSASTKGPSVFPLAPCSRSTSESTAALGCLVKDYFPEPVTVSWNSGALTSGVHTFPAVLQSSGLYSLSSVVTVPSSSLGTKTYTCNVDHKPSNTKVDKRVESKYGPPCPPCPAPEAAGGPSVFLFPPKPKDTLMISRTPEVTCVVVDVSQEDPEVQFNWYVDGVEVHNAKTKPREEQFNSTYRVVSVLTVLHQDWLNGKEYKCKVSNKGLPSSIEKTISKAKGQPREPQVYTLPPSQEEMTKNQVSLSCAVKGFYPSDIAVEWESNGQPENNYKTTPPVLDSDGSFFLVSRLTVDKSRWQEGNVFSCSVMHEALHNRFTQKSLSLSLGK
light 1: DIQMTQSPSSLSASVGDRVTITCRSSQSLVHSNGNTYLHWYQQKPGKAPKFLIYKVSNRFSGVPSRFSGSGSGTDFTLTISSLQPEDFATYYCSQSTHVPFTFGQGTKLEIKRTVAAPSVFIFPPSDEQLKSGTASVVCLLNNFYPREAKVQWKVDNALQSGNSQESVTEQDSKDSTYSLSSTLTLSKADYEKHKVYACEVTHQGLSSPVTKSFNRGEC
heavy 2: EVQLVQSGAEVKKPGESLKISCKGSGYSFTSYWISWVRQMPGKGLEWMGIIDPSDSDTRYSPSFQGQVTISADKSISTAYLQWSSLKASDTAMYYCARGDGSTDLDYWGQGTLVTVSSASTKGPSVFPLAPCSRSTSESTAALGCLVKDYFPEPVTVSWNSGALTSGVHTFPAVLQSSGLYSLSSVVTVPSSSLGTKTYTCNVDHKPSNTKVDKRVESKYGPPCPPCPAPEAAGGPSVFLFPPKPKDTLMISRTPEVTCVVVDVSQEDPEVQFNWYVDGVEVHNAKTKPREEQFNSTYRVVSVLTVLHQDWLNGKEYKCKVSNKGLPSSIEKTISKAKGQPREPQVYTLPPSQEEMTKNQVSLWCLVKGFYPSDIAVEWESNGQPENNYKTTPPVLDSDGSFFLYSRLTVDKSRWQEGNVFSCSVMHEALHNHYTQKSLSLSLGK
light 2: EIVLTQSPGTLSLSPGERATLSCRASQSVSSSYLAWYQQKPGQAPRLLIYGASSRATGIPDRFSGSGSGTDFTLTISRLEPEDFAVYYCQQDYGFPWTFGQGTKVEIKRTVAAPSVFIFPPSDEQLKSGTASVVCLLNNFYPREAKVQWKVDNALQSGNSQESVTEQDSKDSTYSLSSTLTLSKADYEKHKVYACEVTHQGLSSPVTKSFNRGEC
As for B1, the EC50 (usually the midpoint of the concentration-response curve) in assay [1] is 0.8 nM; in assay [2], 12.2 nM; in [4], 1.9 nM; in [5] it was 1.35 µg/mL and 9 nM; in [6], 1.26 nM. For the same molecule, the EC50 (read off the curve) – broadly, the concentration that produces a half-maximal response – in assay [1] was ~0.1 µg/mL; in [3] it was ~0.2 µg/mL; in assay [4], ~0.2 µg/mL; in assay [6] it was ~0.2 µg/mL.

B2: VB17B25 (PSMB410 × B17B21-N33S) (bispecific antibody, human IgG1, kappa, L234A L235A)
chain: not shown
heavy: QVQLQESGPGLVKPSETLSLTCTVSGYSITSGYFWNWIRQPPGKGLEWIGYISYDGSNNYNPSLKSRVTISRDTSKNQFSLKLSSVTAADTAVYYCASPSPGTGYAVDYWGQGTLVTVSSASTKGPSVFPLAPSSKSTSGGTAALGCLVKDYFPEPVTVSWNSGALTSGVHTFPAVLQSSGLYSLSSVVTVPSSSLGTQTYICNVNHKPSNTKVDKKVEPKSCDKTHTCPPCPAPEAAGGPSVFLFPPKPKDTLMISRTPEVTCVVVSVSHEDPEVKFNWYVDGVEVHNAKTKPREEQYNSTYRVVSVLTVLHQDWLNGKEYKCKVSNKALPAPIEKTISKAKGQPREPQVYTLPPSREEMTKNQVSLSCAVKGFYPSDIAVEWESNGQPENNYKTTPPVLDSDGSFFLVSKLTVDKSRWQQGNVFSCSVMHEALHNRFTQKSLSLSPGK
light: B1 light 1 with N33S
notes: First chain is the PSMB410 scFv-Fc; also called Vβ17B25; Vβ17×PSMA
Regarding B2, the half-maximal effective concentration (EC50) is ~3 µg/mL in [7]; 0.2 µg/mL in assay [8]; 2.1 µg/mL in assay [9]; 1.5 µg/mL in [10]; 0.3 µg/mL in assay [11].

B3: VB13 (Vβ17×Null) bispecific antibody (bispecific antibody, human IgG4 S228P, kappa, F234A L235A)
heavy 1: B1 heavy 1
light 1: B1 light 1
heavy 2: not shown
light 2: not shown
notes: Knob-into-hole human IgG4; also called Vβ17XNULL; V 17 null control bispecific
On to B3, for which the 50% effective concentration (EC50) was 1.5 nM in [1]; 12.6 nM in assay [2]; 1.5 nM in assay [4]; 2.8 µg/mL and 18.7 nM in [5]; 1.4 nM in [6]. In addition, the concentration for a half-maximal effect (EC50 (read off the curve)) was ~0.2 µg/mL in [1], ~0.3 µg/mL in [3], ~0.3 µg/mL in assay [4] and ~0.2 µg/mL in assay [6]. Also, the binding result in [12] is recorded as “no binding (tested: about 20 µg/mL)”.

These data come from US20240247063A1 (Janssen / Centocor, published 2024).
